This passage reports Kd results from article PMC7718874 (2020).

B2: AIPP3-BAH domain (residues 112-279) (domain or fragment)
chain: GKGKGKRTHFNQFAYDGNTYDLEVPVLLVPEDKSQKPYVAIIKDITQTKDGSMMILGQWFYRPEEAEKRGGGNWQSSDTRELFYSFHRDEVPAESVMHRCVVYFVPAHKQLPKRKNNPGFIVRKVYDTVEKKLWKLTDKDYEDSKQREIDVLVKKTMNVLGDLPDLES
B3: PAIPP2-PHD finger (domain or fragment)
chain: VKVCDICGDAGREDLLAICSGCSDGAEHTYCMREMLDEVPEGDWLCEECAEE

Where no end group is shown, it is not given here. Me3 = trimethyl-lysine; Me2 = dimethyl-lysine

Holding throughout (test): ITC
On the technique in general: ITC needs no label: the signal is the heat of the interaction.

The target in assay [1] is B2.
The target of another assay is T1, H3K27me1 (Arabidopsis thaliana, also: biotinylated in pull-down).
T1 chain: LATKAARK(Me)SAPATGGVKK

In the next assay the target is T2, H3K27me2 (Arabidopsis thaliana, also: biotinylated in pull-down).
T2 chain: LATKAARK(Me2)SAPATGGVKK

A further assay deals with T3, H3K4me2 (Arabidopsis thaliana).
T3 chain: ARTK(Me2)QTARKSTGGKA

The target of a further assay is T4, H3K4me1 (Arabidopsis thaliana).
T4 chain: ARTK(Me)QTARKSTGGKA

The assay “PAIPP2-PHD finger” concerns the target B3.
For the next assay, the target named is T5, AIPP3-BAH domain D200A (Arabidopsis, UniProt Q8RXT5 112-279, D200A).
T5 sequence: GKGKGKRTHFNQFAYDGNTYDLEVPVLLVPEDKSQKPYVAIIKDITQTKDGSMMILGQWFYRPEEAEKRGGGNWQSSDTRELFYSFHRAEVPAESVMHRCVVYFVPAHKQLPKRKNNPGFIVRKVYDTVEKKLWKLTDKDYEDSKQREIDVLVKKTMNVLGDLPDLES

The target of the next assay is T6, AIPP3-BAH domain H198A (Arabidopsis, UniProt Q8RXT5 112-279, H198A).
T6 sequence: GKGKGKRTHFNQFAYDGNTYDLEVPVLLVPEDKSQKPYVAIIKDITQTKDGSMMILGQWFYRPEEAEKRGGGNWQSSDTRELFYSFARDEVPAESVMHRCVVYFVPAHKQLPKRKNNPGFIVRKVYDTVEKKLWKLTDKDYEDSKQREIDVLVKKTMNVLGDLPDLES

In the next assay the target is T7, AIPP3-BAH domain W170A (Arabidopsis, UniProt Q8RXT5 112-279, W170A).
T7 sequence: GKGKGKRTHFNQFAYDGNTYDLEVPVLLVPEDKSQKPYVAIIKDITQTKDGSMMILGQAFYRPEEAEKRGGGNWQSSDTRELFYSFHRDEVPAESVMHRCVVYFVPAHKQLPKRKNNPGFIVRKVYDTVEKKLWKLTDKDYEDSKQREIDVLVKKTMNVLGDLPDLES

Another assay has as its target T8, AIPP3-BAH domain Y149A (Arabidopsis, UniProt Q8RXT5 112-279, Y149A).
T8 sequence: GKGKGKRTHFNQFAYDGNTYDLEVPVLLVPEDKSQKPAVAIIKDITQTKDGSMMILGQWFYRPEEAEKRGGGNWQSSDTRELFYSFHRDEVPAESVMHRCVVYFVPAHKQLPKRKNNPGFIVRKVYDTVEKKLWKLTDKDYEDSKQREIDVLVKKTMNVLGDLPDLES

B1: H3K9me2 peptide (peptide)
chain: ARTKQTARKSTGGKA
modifications: dimethyl-lysine at K9
As for B1, binding in assay [1] was characterised by a dissociation constant (Kd) of 17.3 µM.

As for B2, the results for the Kd in the assay with H3K27me1 and in the assay with H3K27me2 were 24.2 µM and 17.1 µM, respectively.

For the molecule B3, the Kd – broadly, the constant that tells how readily two partners part at equilibrium – is 30 µM in the assay with H3K4me2 and 22.1 µM with H3K4me1.

B4: unmodified H3K4 peptide (peptide)
chain: ARTKQTARKSTGGKA
modifications: zinc-bound PHD finger; limits from the UniProt ZN_FING feature, construct limits not printed unmodified Lys4; H3 1-15 assumed by convention
In the assay with PAIPP2-PHD finger, B4 came in with a Kd of 18.6 µM.

B5: H3K27me3 peptide (peptide)
chain: LATKAARK(Me3)SAPATGGVKK
As to B5, the Kd stood at 34.1 µM with AIPP3-BAH domain D200A; 17.4 µM in the assay with AIPP3-BAH domain H198A; 28.5 µM with AIPP3-BAH domain W170A; 7.4 µM in assay [1]; 19.8 µM with AIPP3-BAH domain Y149A.

B6: H3K4me3 peptide (peptide)
chain: ARTK(Me3)QTARKSTGGKA
In [1], B6 yielded a Kd of 24.3 µM.
